Non-standard residues stand in square brackets, D forms with d. Residues, ends and D or L forms follow the SMILES beside them. *: point of attachment. DOTA = O=C(O)CN1CCN(CC(=O)O)CCN(CC(=O)*)CCN(CC(=O)O)CC1; Nle = CCCC[C@H](N)C(=O)O
Experiments:
in vivo = details: male, SCID, mouse, iv, 10 pmol, total radioactivity
Experimental: (§1) Inocula of A431-CCK2R(+) and A431-CCK2R(−) cells (1.5 × 10^7 cells and 1.2 × 10^7 cells respectively, in 150 µL normal saline) were subcutaneously injected in the right and left flanks respectively, of 12 male SCID mice; in 5 more mice, a A431-CCK2R(+) cell suspension (1.5 × 10^7 cells in 150 µL normal saline) was subcutaneously injected instead on the neck of the animals. […] All animals were kept under aseptic conditions during this period and until biodistribution or imaging was conducted.
(§2) For the biodistribution study, animals in groups of 4 received a 100 μL bolus of [^99mTc]Tc-DB4 via the tail vein (200 kBq, corresponding to 10 pmol total peptide in saline/EtOH 9/1 v/v—GRPR-tumor-bearing mice) or [^111In]In-SG4 (50 kBq, 10 pmol total peptide—twin A431-CCK2R(+)/A431-CCK2R(−) tumor-bearing mice) co-injected either with injection solution (100 μL; control) or with LBQ657 solution (100 µL injection solution containing 10 µg LBQ657). In additional sets of animals, mice received, by gavage, a single Entresto dose (12 mg/[…] per animal, prepared as described in Section 2.1.1) 30 min prior to injection of the respective radiotracer together with vehicle (100 μL; Entresto group), or with a [Tyr^4]BBN solution (100 μg in 100 μL vehicle; block group). Mice were euthanized at 4 h pi and dissected. Samples of blood, tumors and organs of interest were collected, weighed and measured for radioactivity in the γ-counter (an automated well-type gamma counter with a NaI(Tl) 3′’ crystal, Canberra Packard Auto-Gamma 5000 series instrument). Intestines and stomach were not emptied of their contents; exceptionally, in the case of [^111In]In-SG4-injected animals, stomachs were emptied of their contents. Data was calculated as percent injected activity per gram tissue (%IA/g) with the aid of standard solutions and represented as mean values ± standard deviation (SD), n = 4.

[1] = test system: SCID mice bearing double A431-CCK2R(+/−) xenografts (CCK2R); test: in vivo; details: SCID mice with double A431-CCK2R(+/−) xenografts, 4 h pi, 50 kBq/10 pmol peptide iv, γ-counter, mean ± SD, n = 4; for Biodistribution, Stomach: stomach emptied of contents; for Biodistribution, Intestines: intestines not emptied
Experimental: as §1, §2

[2] = test system: A431-CCK2R(+) tumor-bearing mice; details: 4 h after injection
Experimental: Five mice bearing A431-CCK2R(+) xenografts on their shoulders were used for SPECT/CT imaging. Three out of five mice received Entresto by gavage 30 min prior to radiotracer injection. All five animals were injected with a bolus containing [^111In]In-SG4 (100 μL, 5 MBq of HPLC isolated preparation) via the tail vein and were euthanized 4 h later. […] The SPECT system was based on monolithic NaI detectors attached to SiPMs, with a 0.6 mm intrinsic resolution. The CT system was based on a structured CMOS detector of CsI with pixels of 75 µm and operated between 35 and 80 kVp, 10–500 µA tube current, with a 33 µm fixed focal spot size. For SPECT scans, a 60 min duration protocol was applied, based on the injected activity. A CT scan followed after each SPECT scan, according to a General Purpose protocol under 50 kVp for co-registration purposes. The MLEM reconstruction method was applied for the reconstruction of SPECT images with a 250 µm voxel size and 500 iterations. The ISRA reconstruction method with a 100 µm voxel size was applied for the reconstruction of CT images. Images were exported and post-processed on VivoQuant software, version 4.0 (Invicro, Boston, MA, USA). A smoothing median filter (0.6 mm, spherical window) was applied to the images and for consistency purposes, the bladder was removed.

[3] = Entresto: 12 mg/200 mL by gavage 30 min before, co-injected with vehicle
[4] = LBQ657: co-injected with 10 µg LBQ657

Structure (SMILES): CCCC[C@H](NC(=O)[C@H](Cc1c[nH]c2ccccc12)NC(=O)CNC(=O)[C@H](Cc1ccc(O)cc1)NC(=O)[C@H](C)NC(=O)[C@@H](CCC(=O)O)NC(=O)CN1CCN(CC(=O)O)CCN(CC(=O)O)CCN(CC(=O)O)CC1)C(=O)N[C@@H](CC(=O)O)C(=O)N[C@@H](Cc1ccccc1)C(N)=O [[^111In]In-SG4, metal not drawn] ({DOTA}-[dE]AYGW[Nle]DF-NH2)
- tissue uptake at 4 h (in vivo; A431-CCK2R(+) tumor): 3.07 ± 0.87 %ID/g
- tissue uptake at 4 h (in vivo; A431-CCK2R(−) tumor): 0.28 ± 0.21 %ID/g
- tissue uptake at 4 h (in vivo; blood): 0.03 ± 0.02 %ID/g
- tissue uptake at 4 h (in vivo; femur): 0.1 ± 0.03 %ID/g
- tissue uptake at 4 h (in vivo; heart): 0.05 ± 0.02 %ID/g
- tissue uptake at 4 h (in vivo; kidneys): 2.1 ± 0.49 %ID/g
- tissue uptake at 4 h (in vivo; liver): 0.15 ± 0.02 %ID/g
- tissue uptake at 4 h (in vivo; lungs): 0.06 ± 0.01 %ID/g
- tissue uptake at 4 h (in vivo; muscle): 0.03 ± 0.02 %ID/g
- tissue uptake at 4 h (in vivo; pancreas): 0.08 ± 0.09 %ID/g
- tissue uptake at 4 h (in vivo; spleen): 0.11 ± 0.04 %ID/g
- Biodistribution, Stomach ([1]; Controls: co-injected with vehicle): 1.29 ± 0.25 %IA/g
- Biodistribution, Femur [1, 3]: 0.14 ± 0.03 %IA/g
- Biodistribution, Kidneys [1, 3]: 2.40 ± 0.61 %IA/g
- Biodistribution, Pancreas [1, 3]: 0.34 ± 0.14 %IA/g
- Biodistribution, Spleen [1, 3]: 0.22 ± 0.05 %IA/g
- Biodistribution, Tumor (+) (A431-CCK2R(+)) [1, 3]: 9.61 ± 1.70 %IA/g
- Biodistribution, Tumor (–) (A431-CCK2R(−)) [1, 3]: 0.40 ± 0.23 %IA/g
- Biodistribution, Intestines [1, 3]: 0.34 ± 0.07 %IA/g
- Biodistribution, Stomach [1, 3]: 2.86 ± 0.53 %IA/g
- Biodistribution, Intestines [1, 4]: 0.49 ± 0.12 %IA/g
- Biodistribution, Stomach [1, 4]: 3.10 ± 0.41 %IA/g
- change of tumor uptake on SPECT/CT, Entresto-treated vs controls ([2]; Entresto orally 30 min in advance (3 mice) vs controls (2 mice), A431-CCK2R(+) tumors, 5 MBq iv): notable increase in the tumor uptake
- accumulation in A431-CCK2R(+) xenografts on SPECT/CT images ([2]; SCID mice bearing A431-CCK2R(+) tumors, 5 MBq HPLC-isolated iv, five mice): Significant accumulation

Reference: publication PMC7760338, “One Step Closer to Clinical Translation: Enhanced Tumor Targeting of [^99mTc]Tc-DB4 and [^111In]In-SG4 in Mice Treated with Entresto” (Pharmaceutics, 2020)
